Ends that are not written are not given here.
B1: β2-adrenergic receptor (β2AR) C-tail peptide, human (peptide)
chain: RNCSTNDSLL-OH
modifications: not fully specified
B2: metabotropic glutamate receptor mGlu1(a) C-tail peptide, human (peptide)
chain: RDYKQSSSTL-OH
modifications: not fully specified
B3: metabotropic glutamate receptor mGlu7(a) C-tail peptide, human (peptide)
chain: KYVSYNNLVI-OH
modifications: not fully specified
B4: SSTR1 C-tail peptide (mouse) (peptide)
peptide: YDDRGTCASRISTL
notes: N-terminal linker; YDDR because the C-tail has no Tyr or Trp, by the rule of the methods; somatostatin receptor 1, mouse, 10 C-terminal aa; also called mSSTR1; source: synthetic peptide (Schafer-N)
B5: SSTR1 C-tail peptide (human) (peptide)
peptide: YDDRGTCTSRITTL
notes: N-terminal linker; YDDR because the C-tail has no Tyr or Trp, by the rule of the methods; somatostatin receptor 1, human, 10 C-terminal aa; also called hSSTR1; source: synthetic peptide (Schafer-N)
B6: 5-HTR2C C-tail peptide (human) (peptide)
peptide: YDDRSVVSERISSV
notes: N-terminal linker; YDDR because the C-tail has no Tyr or Trp, by the rule of the methods; 5-hydroxytryptamine receptor 2C, human, 10 C-terminal aa; source: synthetic peptide (Schafer-N)
B7: BAI1 C-tail peptide (human) (peptide)
peptide: YDDRQDIIDLQTEV
notes: N-terminal linker; YDDR because the C-tail has no Tyr or Trp, by the rule of the methods; BAI1 receptor, human, 10 C-terminal aa; also called BAI1 receptor; source: synthetic peptide (Schafer-N)
B8: 5-HTR2A C-tail peptide (human) (peptide)
peptide: YDDRDGVNEKVSCV
notes: N-terminal linker; YDDR because the C-tail has no Tyr or Trp, by the rule of the methods; 5-hydroxytryptamine receptor 2A, human, 10 C-terminal aa; also called 5-hydroxytryptamine receptor 2A; source: synthetic peptide (Schafer-N)
B9: KIF1Bα C-tail peptide (human), unlabeled (peptide)
peptide: YDDRNLKAGRETTV
notes: N-terminal linker (solubility, concentration determination); YDDR because the C-tail has no Tyr or Trp, by the rule of the methods; source: synthetic peptide (Schafer-N)
B10: β2AR C-tail peptide (human) (peptide)
peptide: YDDRRNCSTNDSLL
notes: N-terminal linker; YDDR because the C-tail has no Tyr or Trp, by the rule of the methods; β2-adrenergic receptor, human, 10 C-terminal aa; source: synthetic peptide (Schafer-N)
B11: β1AR C-tail peptide (human) (peptide)
peptide: YDDRRPGFASESKV
notes: N-terminal linker; YDDR because the C-tail has no Tyr or Trp, by the rule of the methods; β1-adrenergic receptor, human, 10 C-terminal aa; also called β1-adrenergic receptor; source: synthetic peptide (Schafer-N)
B12: GluN2B C-tail peptide (human), unlabeled (peptide)
peptide: YEKLSSIESDV
notes: No YDDR/DDR linker is told for this peptide; also called NR2B
B13: CRIPT C-tail peptide (human), unlabeled (peptide)
peptide: LDTKNYKQTSV
notes: No YDDR/DDR linker is told for this peptide
B14: SSTR3 C-tail peptide (human) (peptide)
peptide: DDRKSSTMRISYL
notes: N-terminal linker; DDR (Tyr omitted) because the C-tail contains Tyr, by the rule of the methods; somatostatin receptor 3, human, 10 C-terminal aa; source: synthetic peptide (Schafer-N)

Each binder was assayed against PSD-95 PDZ1 (aa 61–151) (UniProt P78352 61-151) (assay: fluorescence polarisation; competition: 25 nM Cy5-labeled probe and a constant concentration of PDZ protein corresponding to the K d of the probe, twofold dilution series of unlabeled peptide (typically 1–512 µM); 10 mM HEPES pH 7.4, 150 mM NaCl, 1% BSA; room temperature; K i calculated from the IC50). Settings: both partners purified.

Row | Ki [µM] | Binder
1 | > 1000 | B1
2 | 830 | B2
3 | 610 | B3

What follows are binders tested against T1, PSD-95 PDZ2 (aa 155–249) (UniProt P78352 155-249) in the same assay as above. Settings: both partners purified.
T1 construct: postsynaptic density protein 95 (PSD-95), PDZ2, aa 155–249; also called isolated PDZ2

Row | Ki [µM] | Binder
4 | 720 | B1
5 | > 1000 | B2
6 | > 1000 | B3

The binders below were run against T2, PSD-95 PDZ3 (aa 309–401) (UniProt P78352 309-401) in the same assay as above. Settings: both partners purified.
T2 construct: postsynaptic density protein 95 (PSD-95), PDZ3, aa 309–401

Row | Ki [µM] | Binder
7 | > 1000 | B1
8 | > 1000 | B2
9 | > 1000 | B3

What follows are binders tested against T3, PSD-95 PDZ1 (aa 61-151) (UniProt P78352 61-151) (assay: SPR; PDZ domain immobilised by amine coupling (CM5 for PDZ1 and PDZ2, CM4 for PDZ3), peptides injected; Biacore X100, 25.0°C, HBS-EP+ (10 mM HEPES pH 7.4, 150 mM NaCl, 3 mM EDTA, 0.05% Surfactant P-20); 1 mM DTT for peptides with a cysteine; Kd from steady-state responses, 1:1 model with a linear component). Settings: both partners purified.
T3 construct: postsynaptic density protein 95 (PSD-95), PDZ1, aa 61-151

Row | Kd [µM] | Binder
10 | 270 | B4
11 | 84 | B5
12 | 160 | B6
13 | 120 | B7
14 | 630 | B8
15 | 2.2 | B9

What follows are binders tested against T4, PSD-95 PDZ2 (aa 155-249) (UniProt P78352 155-249) in the same assay as above. Settings: both partners purified.
T4 construct: postsynaptic density protein 95 (PSD-95), PDZ2, aa 155-249

Row | Kd [µM] | Binder
16 | 76 | B5
17 | 62 | B6
18 | 2090 | B10
19 | 74 | B7
20 | 180 | B11
21 | 110 | B8
22 | 1.1 | B9
23 | 1.4 | B12

The binders below were run against T5, PSD-95 PDZ3 (aa 309-401) (UniProt P78352 309-401) in the same assay as above. Settings: both partners purified.
T5 construct: postsynaptic density protein 95 (PSD-95), PDZ3, aa 309-401

Row | Kd [µM] | Binder
24 | 780 | B6
25 | 1.5 | B13
26 | 2400 | B7
27 | 400 | B11
28 | 240 | B14

What follows are binders tested against T3, PSD-95 PDZ1 (aa 61-151) (assay: fluorescence polarisation; competition: 25 nM Cy5-labeled probe (Cy5-KIF1Bα for PDZ1, Cy5-GluN2B for PDZ2, Cy5-CRIPT for PDZ3), constant PDZ protein at the probe's Kd, twofold dilution series of unlabeled peptide (typically 1–512 µM); 10 mM HEPES pH 7.4, 150 mM NaCl, 1% BSA, room temperature; Ki calculated from IC50). Settings: both partners purified.

Row | Ki [µM] | Binder
29 | 7 | B9
30 | 29 | B12

Each binder was assayed against T4, PSD-95 PDZ2 (aa 155-249) in the same assay as above. Settings: both partners purified.

Row | Ki [µM] | Binder
31 | 3.8 | B9
32 | 5.5 | B12

The binders below were run against T5, PSD-95 PDZ3 (aa 309-401) in the same assay as above. Settings: both partners purified.

Row | Ki [µM] | Binder
33 | 2.9 | B13
34 | 14 | B9
35 | > 1000 | B12
